In US20040071656A1, “Modulation of heat-shock-protein-based immunotherapies” (priority 2001, published 2004):
No end group written: not given here. *: point of attachment. Biotin = O=C1N[C@H]2[C@H](CS[C@H]2CCCCC(=O)*)N1

Target: Recombinant human His6-tagged Hsp70 (human), P0DMV8
Experiment: ELISA with streptavidin-peroxidase after gel filtration of Hsp70 loaded with biotinylated peptide C (ADP)

Sequence of Recombinant human His6-tagged Hsp70 (human), P0DMV8 (P0DMV8 2-641): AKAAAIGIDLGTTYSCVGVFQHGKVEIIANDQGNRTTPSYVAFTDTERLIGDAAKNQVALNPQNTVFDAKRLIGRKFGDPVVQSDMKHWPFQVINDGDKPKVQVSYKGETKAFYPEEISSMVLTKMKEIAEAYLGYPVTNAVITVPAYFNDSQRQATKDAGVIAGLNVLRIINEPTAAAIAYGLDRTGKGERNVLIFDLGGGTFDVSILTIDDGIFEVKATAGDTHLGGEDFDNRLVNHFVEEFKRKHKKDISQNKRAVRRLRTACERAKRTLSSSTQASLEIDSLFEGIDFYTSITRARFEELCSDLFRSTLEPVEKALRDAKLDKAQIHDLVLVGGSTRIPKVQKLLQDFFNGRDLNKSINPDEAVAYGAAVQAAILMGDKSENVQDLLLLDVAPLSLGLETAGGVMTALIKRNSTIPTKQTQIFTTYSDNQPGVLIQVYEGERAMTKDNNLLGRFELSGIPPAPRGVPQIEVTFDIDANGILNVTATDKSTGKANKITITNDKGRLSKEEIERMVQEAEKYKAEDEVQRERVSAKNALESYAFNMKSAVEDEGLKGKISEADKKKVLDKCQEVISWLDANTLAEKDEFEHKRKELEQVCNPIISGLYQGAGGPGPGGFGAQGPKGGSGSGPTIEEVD

yield of Hsp70 complex formation: 20 to 30%
Binder: Biotin-GCEVFGLGWRSYKH [Biotinylated peptide C (biotin-…)]
